One test addresses T1, GFP-Bcl-GS (human, UniProt P42212 1-238 = GFP, limits assumed).
T1 construct: Expressed by transient transfection and immunoprecipitated with polyclonal anti-GFP antibody; also called Bcl-G (short); wild-type Bcl-GS
As to the kind of experiment: co-immunoprecipitation from lysates of transiently transfected cells. On the procedure:
(§1) For co-immunoprecipitations and immunoblotting, immunoblotting was performed as described previously (Xu and Reed, supra., (1998); Zhang et al., supra., (2000)). For co-immunoprecipitations, cells were cultured in […] benzocarbonyl Valine Alanine Aspartate fluoromethyl-ketone (zVAD-fmk) to prevent apoptosis. Cells were suspended in lysis buffer (50 mM Tris-HCl, pH7.4; 150 mM NaCl; 20 mM EDTA; 50 mM NaF; 0.5% NP-40; 0.1 mM Na_3VO_4; 20 µg/ml Leupeptin; 20 µg/ml Aprotinin; 1 mM dithiothreitol (DTT); and 1 mM phenylmethylsulfonylfluoride (PMSF). Lysates (0.2 ml diluted into 1 ml final volume of lysis buffer) were cleared by incubation with 15 µl of protein G-Sepharose 4B (Zymed; South San Francisco Calif.) and then incubated with 15 µl of polyclonal anti-GFP antibody (Santa Cruz; Santa Cruz Calif.) and 15 µl of protein G at 4° C. overnight. Beads were then washed 4 times with 1.5 mls lysis buffer before boiling in Laemmli sample buffer and performing SDS-PAGE/immunoblotting.

In another test the target is Bcl-XL (UniProt Q07817 1-233). Kind of test: co-immunoprecipitation with anti-GFP antibody, anti-Bcl-XL immunoblot. The protocol:
as §1

For test [1], the target named is T2, Bcl-GS (yeast two-hybrid construct) (human, UniProt Q9BZR8 1-241).
T2 construct: Used in yeast two-hybrid assays
T2 sequence: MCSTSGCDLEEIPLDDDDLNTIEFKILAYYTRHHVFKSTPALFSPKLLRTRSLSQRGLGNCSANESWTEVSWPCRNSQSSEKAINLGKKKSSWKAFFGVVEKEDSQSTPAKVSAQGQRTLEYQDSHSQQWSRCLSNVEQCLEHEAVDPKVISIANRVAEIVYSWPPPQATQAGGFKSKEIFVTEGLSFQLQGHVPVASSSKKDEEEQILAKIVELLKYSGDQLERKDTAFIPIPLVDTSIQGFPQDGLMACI
Kind of test: yeast two-hybrid.

Sequence of Bcl-XL (Q07817 whole entry): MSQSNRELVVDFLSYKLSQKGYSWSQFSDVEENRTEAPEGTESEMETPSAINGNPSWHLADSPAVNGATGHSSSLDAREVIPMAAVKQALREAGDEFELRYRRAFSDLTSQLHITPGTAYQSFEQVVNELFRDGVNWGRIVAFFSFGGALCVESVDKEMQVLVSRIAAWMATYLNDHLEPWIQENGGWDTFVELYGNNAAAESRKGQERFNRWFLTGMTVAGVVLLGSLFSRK

B1: Bad (other, UniProt Q92934 1-168, looked up)
chain: MFQIPEFEPSEQEDSSSAERGLGPSPAGDGPSGSGKHHRQAPGLLWDASHQQEQPTSSSHHGGAGAVEIRSRHSSYPAGTEDDEGMGEEPSPFRGRSRSAPPNLWAAQRYGRELRRMSDEFVDSFKKGLPRPKSAGTATQMRQSSSWTRVFQSWWDRNLGRGSSAPSQ
As for B1, the binding result with GFP-Bcl-GS is recorded as “no binding”.

B2: GFP-Bcl-GS (ΔBH3) (other)
chain: MCSTSGCDLEEIPLDDDDLNTIEFKILAYYTRHHVFKSTPALFSPKLLRTRSLSQRGLGNCSANESWTEVSWPCRNSQSSEKAINLGKKKSSWKAFFGVVEKEDSQSTPAKVSAQGQRTLEYQDSHSQQWSRCLSNVEQCLEHEAVDPKVISIANRVAEIVYSWPPPQATQAGGFKSKEIFVTEGLSFQLQGHVPVASSSKKDEEEQILAGSDTAFIPIPLVDTSIQGFPQDGLMACI
notes: The limits of the deletion would have to be derived from the primers; they are not guessed here; also called GFP-Bcl-GS (DBH3); mutant of Bcl-GS lacking the BH3 domain; not shown: N-terminal EGFP and the short vector linker of pEGFP-C1 (Clontech)
Turning to B2, the binding result with Bcl-XL is reported as “no binding”.

B3: Bak (other, UniProt Q16611 1-211, looked up)
chain: MASGQGPGPPRQECGEPALPSASEEQVAQDTEEVFRSYVFYRHQQEQEAEGVAAPADPEMVTLPLQPSSTMGQVGRQLAIIGDDINRRYDSEFQTMLQHLQPTAENAYEYFTKIATSLFESGINWGRVVALLGFGYRLALHVYQHGLTGFLGQVTRFVVDFMLHHCIARWIAQRGGWVAALNLGNGPILNVLVVLGVVLLGQFVVRRFFKS
Take B3: the binding result (with GFP-Bcl-GS; in test [1]) was “no binding” in each case.

B4: Bid (other, UniProt P55957 1-195, looked up)
chain: MDCEVNNGSSLRDECITNLLVFGFLQSCSDNSFRRELDALGHELPVLAPQWEGYDELQTDGNRSSHSRLGRIEADSESQEDIIRNIARHLAQVGDSMDRSIPPGLVNGLALQLRNTSRSEEDRNRDLATALEQLLQAYPRDMEKEKTMLVLALLLAKKVASHTPSLLRDVFHTTVNFINQNLRTYVRSLARNGMD
With B4, the binding result with GFP-Bcl-GS was “no binding”.

Values taken from patent US7638324 (BURNHAM INSTITUTE FOR MEDICAL RESEARCH, dated 2009).
